Assay results: publication doi:10.1101/2024.02.06.578578

Molecular target: SkSGLc, SkSGL from Sanguibacter keddieii (KEGG locus tag, Sked_30460) with a C-terminal His6-tag (Sanguibacter keddieii)
Assay: SEC

stoichiometry N: 2
Substance: SkSGLc, SkSGL from Sanguibacter keddieii (KEGG locus tag, Sked_30460) with a C-terminal His6-tag (enzyme)
